The results in this text go back to publication PMC7544229, “Periphilin self-association underpins epigenetic silencing by the HUSH complex” (Nucleic Acids Research, 2020).

Data set [1] deals with the molecule itself. Nature of the data set: crystal structure; Periphilin 292–367 with TASOR 1014–1095; sitting drop, 18°C, 0.1 M citrate pH 4.5, 1 M ammonium sulfate; SAD phasing with Br; refined at 2.5 Å.
The target of data set [2] is T1, TASOR fragment (residues 1014–1095) (human, UniProt Q9UK61-1 1014-1095).
T1 construct: codon-optimized synthetic gene; untagged; Residues 1055–1071 are disordered in the crystal structure; also called untagged TASOR fragment; minimal core TASOR; source: E. coli BL21 (DE3), co-expressed with His6-Periphilin fragments from pRSF-Duet, co-purified with Periphilin
T1 sequence (looked up): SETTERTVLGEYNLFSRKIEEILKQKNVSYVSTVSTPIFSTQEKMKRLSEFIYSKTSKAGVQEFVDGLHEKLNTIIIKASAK
The experiment in a line: SEC-MALS; minimal Periphilin-TASOR core complex; Superdex 200 10/300 in PBS, 293 K, 0.5 ml/min. The settings on record: both partners purified. (In gel filtration, larger molecules generally elute earlier.)

Data set [3] has as its target T1, TASOR fragment (residues 1014–1095). The experiment in a line: native MS; non-denaturing mass spectrometry of the His6-Periphilin 285–374 / TASOR 1014–1095 complex; conditions not shown. The settings on record: both partners purified.

B1: Periphilin fragment (residues 292–367) (domain or fragment, human, UniProt Q8NEY8-2 292-367, looked up)
chain: SQLTTRSKAIASKTKEIEQVYRQDCETFGMVVKMLIEKDPSLEKSIQFALRQNLHEIGERCVEELKHFIAEYDTST
notes: codon-optimized synthetic gene; preceded by a His6 tag and a TEV site (ENLYFQG), digested with TEV protease; Two copies of this chain form a homodimer in the 2:1 complex with TASOR; A residue of the TEV site (G) may remain at the N-terminus after cleavage; not shown: His6, N-terminal, cleaved
Usually stoichiometry N stands for the number of molecules, sites or subunits per partner or assembly. As to B1, the binding result in data set [1] is given as “binds”. In data set [2], the “stoichiometry N” value stood at 2 Periphilin per TASOR.

B2: His6-tagged Periphilin residues 285–374 (domain or fragment, human, UniProt Q8NEY8-2 285-374, looked up)
chain: GIELFEDSQLTTRSKAIASKTKEIEQVYRQDCETFGMVVKMLIEKDPSLEKSIQFALRQNLHEIGERCVEELKHFIAEYDTSTQDFGEPF
notes: codon-optimized synthetic gene; Construct used for NMR and native mass spectrometry of the Periphilin-TASOR complex; not shown: His6, N-terminal, kept
As to B2, the “stoichiometry N” value in data set [3] came to 2 Periphilin per TASOR.
